What was measured:
HIS-PI3K/p85-SH3 [1] = target: T1, HIS-PI3K/p85-SH3 (Homo sapiens, UniProt O00459); test: GST-pull down assay; format: binding; details: 3 mg/ml HIS-PI3K/p85-SH3; control GST-protein did not retain
T1 construct: the Src Homology 3 (SH3) domain of the regulatory subunit of PI3K were produced; made in house; host or cells: bacteria (IPTG induction)
T1 sequence (O00459 4-80 limits assumed): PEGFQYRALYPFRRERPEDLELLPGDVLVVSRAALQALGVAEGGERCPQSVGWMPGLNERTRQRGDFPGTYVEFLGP
T1 sequence (Q5VST9 5895-6004 partner limits assumed): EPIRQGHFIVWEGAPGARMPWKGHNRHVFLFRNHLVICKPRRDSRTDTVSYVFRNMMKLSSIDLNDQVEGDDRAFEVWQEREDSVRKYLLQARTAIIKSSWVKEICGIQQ
Text: (§1) The Pleckstrin Homology (PH) domain of obscurin and the Src Homology 3 (SH3) domain of the regulatory subunit of PI3K were produced as glutathione-S-transferase (GST, PGEX vector; GE Healthcare Life Sciences) and His (pET-30a(+) vector; EMD Millipore, Billerica, Mass.) tagged proteins, respectively, according to the manufacturers' instructions and established methods (19). Human cDNA from normal breast tissue was purchased from a commercial source (Origene, Atlanta, Ga.), and the following sets of primers were used for amplification of the obscurin-PH and the PI3K/p85-SH3 domains: Sense-Obsc-PH: 5′ CCCATCCGCCAGGGC 3′ (SEQ ID NO 1) and Antisense-Obsc-PH: 5′ AGGCAGGGCCAGACG 3′ (NM_001098623.2) (SEQ ID NO 2), and Sense-PI3K/p85-SH3: 5′ CCTGAGGGCTTCCAG 3′ (SEQ ID NO 3) and Antisense-PI3K/p85-SH3: 5′ TCAGGGCCCCAGGAA 3′ (NM_005027) (SEQ ID NO 4). GST- and His-tagged recombinant proteins were expressed by induction with 0.5 mM isopropyl β-D-thioglucopyranoside (IPTG) for 3 h and purified by affinity chromatography on glutathione-Sepharose (Thermo Fisher Scientific) or Talon cobalt (Thermo Fisher Scientific) columns, respectively, following the manufacturers' instructions.
GST-pull down assays were performed (19, 20). […]

HIS-PI3K/p85-SH3 [2] = target: T1, HIS-PI3K/p85-SH3; test: Surface plasmon resonance (Biacore 3000) of obscurin-PH binding to PI3K/p85-SH3; details: GST-obscurin-PH immobilized ligand, HIS-PI3K/p85-SH3 analyte 8-250 nM; 1:1 Langmuir model, at equilibrium; read-out: dissociation constant, KD
Text: as §1, with “GST- and His-tagged recombinant proteins were expressed by induction with 0.5 mM isopropyl β-D-thioglucopyranoside (IPTG) for 3 h and purified by affinity chromatography on glutathione-Sepharose (Thermo Fisher Scientific) or Talon cobalt (Thermo Fisher Scientific) columns, respectively, following the manufacturers' instructions.” left out
Surface plasmon resonance was performed using a BiaCore 3000 instrument as described (6, 19, 21). […] For each analyte concentration, association was measured for 180 sec and dissociation was measured over another 180 sec. Data were evaluated with the 1:1 Langmuir model and the Heterogeneous Ligand model (BIAevaluation Software 3.1, Biacore). The association (ka, M^−1 s^−1) and dissociation (kd, s^−1) rate constants as well as the association (KA, M^−1) and dissociation (KD, M) equilibrium constants were determined.

Kd (HIS-PI3K/p85-SH3 [2]): ~50 nM
B1: GST-obscurin-PH: recombinant Pleckstrin Homology (PH) domain of obscurin fused to GST, bacterially expressed (~37 kDa) (protein)
chain: T1 sequence (Q5VST9 5895-6004 partner limits assumed)
modifications: left off: a dimerising Fc or GST
retention of HIS-PI3K/p85-SH3 in GST-pull down (HIS-PI3K/p85-SH3 [1]): able to efficiently and specifically retain HIS-PI3K/p85-SH3

— patent US20170363632A1, “Biomarker Kit for Metastatic Breast Cancer Prognosis and Uses Thereof” (University of Maryland, Baltimore, priority 2016, published 2017)
